Results on eight molecules are retold here after US20220002426A1 (BIOINVENT INTERNATIONAL, published 2022).

For experiment [1], the target named is T1, mTNFRII (Sinobioologicals Cat No. 50128 M08H) (mouse, UniProt P25119 23-258, limits assumed).
T1 construct: bought
T1 sequence (looked up): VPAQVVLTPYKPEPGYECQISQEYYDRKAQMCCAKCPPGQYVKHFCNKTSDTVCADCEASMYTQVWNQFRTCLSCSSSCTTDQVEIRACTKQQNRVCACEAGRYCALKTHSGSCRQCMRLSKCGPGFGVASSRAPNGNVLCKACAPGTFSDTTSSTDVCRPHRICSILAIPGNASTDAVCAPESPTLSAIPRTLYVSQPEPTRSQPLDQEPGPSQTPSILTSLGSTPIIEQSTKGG
The experiment is described as follows: ELISA, coated mTNFRII, mTNF-α 2 nM, rabbit anti-mTNF-α and anti-rabbit-HRP. The procedure:
(§1) 96-well plates were coated with hTNFRII (Sinobioologicals Cat nr10414-H08H) or mTNFRII (Sinobioologicals Cat No. 50128 M08H) at 2.5 pmol/well in ELISA coating buffer (0.1 M sodium carbonate pH 9.5) and incubated overnight at 4° C. After washing in ELISA wash buffer (PBS with 0.05% Tween20), the plates were incubated under slow agitation for 1 h in room temperature with n-CoDeR® mAbs at 10 μg/ml (one-dose ELISA) or 33 nM and subsequent 1:2 dilutions (titration ELISA) in block buffer containing 0.45% fish gelatin. […] Thereafter, plates were washed. For the human ELISAs, Streptavidin-HRP (Jackson Cat No. 016-030-084) diluted 1:2000 in block buffer were added and again incubated for 1 h at room temperature followed by washes first in ELISA buffer and then in Tris buffer (pH 9.8). The substrate (Super Signal ELISA Pico from Thermo Scientific Cat. No. 37069) were thereafter diluted according to the manufacturers instruction, added to the wells and incubated in darkness for 10 min before reading in a Tecan Ultra. […] After washing, anti-Rabbit-HRP diluted 1:10 000 in block buffer was added and again incubated for 1 h at room temperature. Substrate adding and reading were performed as above.

The target of experiment [2] is T2, recombinant human TNFR2-Fc protein (Sino Biological) (human, UniProt P20333 23-257, limits assumed).
T2 construct: bought; also called human TNFR2 protein; not shown: Fc part of the bought fusion protein; not described
T2 sequence (looked up): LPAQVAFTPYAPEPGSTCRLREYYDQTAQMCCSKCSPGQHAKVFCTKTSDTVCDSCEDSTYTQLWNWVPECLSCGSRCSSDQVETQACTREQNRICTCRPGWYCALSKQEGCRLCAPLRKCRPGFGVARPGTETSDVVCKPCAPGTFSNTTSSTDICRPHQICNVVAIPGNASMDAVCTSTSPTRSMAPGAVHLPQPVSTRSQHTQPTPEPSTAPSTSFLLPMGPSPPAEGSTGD
Kind of experiment: ELISA, coated TNFR2-Fc. The protocol: (§2) 96-well plates (Lumitrac 600 LIA plate, Greiner) were coated overnight at 4° C. with recombinant human or mouse TNFR2-Fc protein (Sino Biological) at 1 pmol/well. After washing, titrated doses of anti-TNFR2 mAbs from 20 μg/ml to 0.1 ng/ml (133 nM to 1 pM) were allowed to bind for 1 hour. Plates were then washed again, and bound antibodies were detected with an anti-human-F(ab)-HRP secondary antibody (Jackson ImmunoResearch) diluted in 50 ng/ml. Super Signal ELISA Pico (Thermo Scientific) was used as substrate and the plates were analyzed using Tecan Ultra Microplate reader.

In experiment [3] the target is T3, wild type, full length human TNFR2 (on cells) (human, UniProt P20333 23-461).
T3 construct: whole, on cells; also called hTNFR2; TNFRII
T3 sequence (looked up): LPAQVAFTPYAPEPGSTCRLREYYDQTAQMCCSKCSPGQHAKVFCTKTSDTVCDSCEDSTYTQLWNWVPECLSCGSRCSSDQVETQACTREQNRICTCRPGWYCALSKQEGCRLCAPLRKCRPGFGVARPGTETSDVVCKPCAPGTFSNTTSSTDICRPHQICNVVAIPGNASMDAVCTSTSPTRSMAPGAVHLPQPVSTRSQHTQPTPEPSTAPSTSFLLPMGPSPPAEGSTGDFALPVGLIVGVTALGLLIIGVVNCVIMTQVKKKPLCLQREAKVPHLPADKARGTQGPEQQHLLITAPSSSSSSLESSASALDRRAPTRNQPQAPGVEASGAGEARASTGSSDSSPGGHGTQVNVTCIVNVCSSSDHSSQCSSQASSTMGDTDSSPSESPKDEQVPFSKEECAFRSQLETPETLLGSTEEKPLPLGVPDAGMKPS
Kind of experiment: FACS, activated CD4+ T cells. The protocol:
(§3) The ability and affinity of TNFR2 n-CoDeR® antibodies to bind TNFR2 expressed on cells were obtained using in vitro activated CD4⁺ T cells. Human CD4⁺ T cells were stimulated with 50 ng/ml rhIL-2 (R&D systems) and Dynabeads® T-Activator CD3/CD28 for T-Cell Expansion and Activation (Gibco) 2-3 days at 37 degrees. […] Cells were then incubated with an APC conjugated a-human IgG secondary ab (Jackson) followed by analysis by flow cytometry (FACSVerse, BD).
Background: Flow cytometry measures light scatter and fluorescence of single cells or particles in a stream.

The target in experiment [4] is T4, wild type, full length murine TNFR2 (on cells) (mouse, UniProt P25119 23-474).
T4 construct: whole, on cells; also called mTNFR2; mouse TNFR2
T4 sequence (looked up): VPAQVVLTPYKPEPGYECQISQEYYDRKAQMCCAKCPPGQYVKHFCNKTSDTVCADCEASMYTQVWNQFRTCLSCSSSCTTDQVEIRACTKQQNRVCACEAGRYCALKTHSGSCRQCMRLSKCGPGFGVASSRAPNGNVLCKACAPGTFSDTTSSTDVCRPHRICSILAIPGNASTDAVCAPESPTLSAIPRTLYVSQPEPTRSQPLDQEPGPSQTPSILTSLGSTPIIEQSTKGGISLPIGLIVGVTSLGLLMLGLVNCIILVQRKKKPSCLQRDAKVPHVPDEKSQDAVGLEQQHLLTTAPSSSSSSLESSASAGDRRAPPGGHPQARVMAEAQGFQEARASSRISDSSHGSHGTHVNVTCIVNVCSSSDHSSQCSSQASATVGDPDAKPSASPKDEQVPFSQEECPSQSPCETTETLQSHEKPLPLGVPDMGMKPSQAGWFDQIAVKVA
The experiment is described as follows: FACS, transfected HEK293 cells.

The target of experiment [5] is T5, recombinant mouse TNFR2-Fc protein (Sino Biological) (mouse, UniProt P25119 23-258, limits assumed).
T5 construct: bought; also called mTNFR2 protein; mTNFR2; not shown: Fc part of the bought fusion protein; not described
T5 sequence (looked up): T1 sequence (looked up)
The experiment is described as follows: ELISA, coated TNFR2-Fc. The procedure:
as §2

Experiment [6] deals with T4, wild type, full length murine TNFR2 (on …). Kind of experiment: FACS, activated mouse CD4+ T cells.
Experiment [7] deals with T6, hTNFRII (Sinobioologicals Cat nr10414-H08H) (human, UniProt P20333 23-257).
T6 construct: bought; also called immobilized TNFR2
T6 sequence (looked up): T2 sequence (looked up)
The experiment is described as follows: blocking ELISA, coated hTNFRII, competitor hTNF-α-bio 5 nM. The protocol: as §1
On the technique in general: An ELISA detects its analyte on a solid surface through an enzyme-linked reagent.

The target in experiment [8] is T3, wild type, full length human TNFR2 (on …). The experiment is described as follows: FACS, activated CD4+ T cells. The procedure: as §3
This is another data set of the same source.

Where a chain is given by its changes, count along the chain named. Names and notes keep the numbering of the source. Like-named read-outs stand apart in the source and are kept apart here.

B1: mTNF-α (Gibco Cat. No. PMC3014) (ligand, mouse, UniProt P06804 80-235, looked up)
chain: LRSSSQNSSDKPVAHVVANHQVEEQLEWLSQRANALLANGMDLKDNQLVVPADGLYLVYSQVLFKGQGCPDYVLLTHTVSRFAISYQEKVNLLSAVKSPCPKDTPEGAELKPWYEPIYLGGVFQLEKGDQLSAEVNLPKYLDFAESGQVYFGVIAL
As to B1, the binding result in experiment [1] was “binds”.

B2: 001-F06 (antibody, V domains shown)
VH: EVQLLESGGGLVQPGGSLRLSCAASGFTFSSYAMHWVRQAPGKGLEWVSAISGGATTTYYADSVKGRFTISRDNSKNTLYLQMNSLRAEDTAVYYCAKGGTGDPYYFDYWGQGTLVTVSS
VL: QSVLTQPPSASGTPGQRVTISCTGSSSNIGAGYDVHWYQQLPGTAPKLLIYRNNQRPSGVPDRFSGSKSGTSASLAISGLRSEDEADYYCAARDDGLSGPVFGGGTKLTVLG
notes: IgG
By EC50 is commonly meant the concentration giving half of the maximal effect. As for B2, the concentration giving a half-maximal response (EC50) in experiment [2] worked out at 0.15 nM; in experiment [3], 2.5 nM. Further, the binding result in experiment [4] is recorded as “no binding”.

B3: 005-A05 (antibody, V domains shown)
VH: EVQLLESGGGLVQPGGSLRLSCAASGFTFSSYAMSWVRQAPGKGLEWVSTIIGSGANTWYADSVKGRFTISRDNSKNTLYLQMNSLRAEDTAVYYCARHEGYYYYGMDVWGQGTLVTVSS
VL: B2 VL with D34V, R52G, N54S, Q55N, R93W, G96S, S98N, P100R
notes: also called 5-A05 (mouse)
On to B3, for which the EC50 was 1.4 nM in experiment [5] and 0.11 nM in experiment [6].

B4: 001-F02 (antibody, V domains shown)
VH: EVQLLESGGGLVQPGGSLRLSCAASGFTFSDYYMSWVRQAPGKGLEWVANINTDGSEKYYLDSVKGRFTISRDNSKNTLYLQMNSLRAEDTAVYYCAREEYGAFDIWGQGTLVTVSS
VL: QSVLTQPPSASGTPGQRVTISCSGSSSNIGSNTVNWYQQLPGTAPKLLIYDNNKRPSGVPDRFSGSKSGTSASLAISGLRSEDEADYYCQSFDRGLSGSIVFGGGTKLTVLG
notes: IgG; In the MDSC assay tested as hIgG1, hIgG2 and N297Q
With B4, the EC50 in experiment [2] turned out to be 0.31 nM; in experiment [3], 0.79 nM. For the same molecule, the binding result in experiment [4] is on record as “no binding”.

B5: 005-B08 (antibody, V domains shown)
VH: EVQLLESGGGLVQPGGSLRLSCAASGFTFSDYYMSWIRQAPGKGLEWVAIISYDGGGKYFADPVKGRFTISRDNSKNTLYLQMNSLRAEDTAVYYCARYYGDGGFDPWGQGTLVTVSS
VL: not shown
notes: IgG
Take B5: the EC50 in experiment [2] came to 0.17 nM; in experiment [3], 1.2 nM; in experiment [7] it was 0.3 nM. In addition, in experiment [4], the binding result is recorded as “no binding”.

B6: 001-G10 (antibody, V domains shown)
VH: EVQLLESGGGLVQPGGSLRLSCAASGFTFSAYGMHWVRQAPGKGLEWVAVVSYDGREKHYADSVKGRFTISRDNSKNTLYLQMNSLRAEDTAVYYCARSDGGYDSDSGYYWGQGTLVTVSS
VL: QSVLTQPPSASGTPGQRVTISCSGSTSNIGSNFVYWYQQLPGTAPKLLIYDNNKRPSGVPDRFSGSKSGTSASLAISGLRSEDEADYYCSSYAYSDNILFGGGTKLTVLG
notes: IgG
Regarding B6, the values for the concentration for a half-maximal effect (EC50) in experiment [2], in experiment [3] and in experiment [7] were 0.29 nM, 3.3 nM and 1.6 nM, respectively. For the same molecule, the binding result in experiment [4] is on record as “no binding”.

B7: 004-H02 (antibody, V domains shown)
VH: EVQLLESGGGLVQPGGSLRLSCAASGFTFDDYGMSWVRQAPGKGLEWVSTIYSGDNAYYGASVRGRFTISRDNSKNTLYLQMNSLRAEDTAVYYCARVYSSSWRKRAFDIWGQGTLVTVSS
VL: not shown
notes: IgG
Consider B7, for which the EC50 stood at 0.2 nM in experiment [2], 0.6 nM in experiment [8], 0.59 nM in experiment [3] and 0.4 nM in experiment [7].

B8: 001-C03 (antibody, V domains shown)
VH: EVQLLESGGGLVQPGGSLRLSCAASGFTFSNAWMSWVRQAPGKGLEWVSAISVSGINTYYADSVKGRFTISRDNSKNTLYLQMNSLRAEDTAVYYCARDTGSLGVDYWGQGTLVTVSS
VL: QSVLTQPPSASGTPGQRVTISCSGSSSNIGSNTVNWYQQLPGTAPKLLIYRNNQRPSGVPDRFSGSKSGTSASLAISGLRSEDEADYYCQSYDSSLSISVFGGGTKLTVLG
notes: IgG; also called 1-003; 001-0O3
B8: the EC50 came out at 0.75 nM in experiment [2], 52.7 nM in experiment [8] and 53 nM in experiment [3].
